Measured values: patent US20040005669A1 (CREATIVE PEPTIDES SWEDEN, published 2004)

Columns and labels:
[1] = molecular target: rabbit anti-human C-peptide antiserum; assay: competitive radioimmunoassay against labelled C-peptide tracer; expected concentration 3.31 nM
[2] = molecular target: T1, human serum albumin (HSA), immobilised on Sepharose (human, UniProt P02768 25-609); assay: affinity chromatography on HSA-Sepharose
T1 construct: also called HSA-Sepharose; human-serum-albumin (HSA)-Sepharose
T1 sequence (P02768 25-609 limits assumed): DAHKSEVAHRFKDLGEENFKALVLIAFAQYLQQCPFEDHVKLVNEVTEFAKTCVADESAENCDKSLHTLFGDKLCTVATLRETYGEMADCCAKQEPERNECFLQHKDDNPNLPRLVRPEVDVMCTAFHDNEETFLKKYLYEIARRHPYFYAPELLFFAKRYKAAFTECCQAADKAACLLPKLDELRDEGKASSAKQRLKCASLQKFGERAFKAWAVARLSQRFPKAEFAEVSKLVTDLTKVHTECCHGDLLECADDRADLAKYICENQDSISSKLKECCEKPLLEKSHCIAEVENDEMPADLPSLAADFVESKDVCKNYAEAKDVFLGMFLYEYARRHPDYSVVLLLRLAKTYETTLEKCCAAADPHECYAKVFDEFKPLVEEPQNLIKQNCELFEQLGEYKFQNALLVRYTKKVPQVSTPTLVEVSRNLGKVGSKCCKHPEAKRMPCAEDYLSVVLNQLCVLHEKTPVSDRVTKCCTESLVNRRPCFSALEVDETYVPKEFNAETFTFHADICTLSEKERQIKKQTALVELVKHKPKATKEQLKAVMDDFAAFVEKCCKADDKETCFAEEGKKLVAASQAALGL
Protocol: E. coli cells harbouring pTrpBB-C3 and pTrpBB-C7, and thus encoding the fusion proteins BB-C3 and BB-C7, respectively, were grown overnight at 37° C. in shake-flasks containing 10 ml Tryptic Soy Broth (Difco, USA) (30 g/l) supplemented with yeast extract (Difco) (5 g/l) and kanamycin monosulfate (50 mg/l). The overnight cultures were diluted 10-fold to 100 ml into baffled shake-flasks having the same type of media and grown at 37° C. Gene expression was induced at mid-log phase (A_{600 nm}≅1) by the addition of β-indole acrylic acid to 25 mg/l. Cells were harvested 20 hours after induction, by centrifugation at approximately 6000 g for 10 min. Cells were resuspended in 1/20 of the culture volume in TST (50 mM Tris-HCl pH 8.0. 200 mM NaCl, 0.05% Tween 20, 1 mM EDTA), lysed by sonication and centrifuged at approximately 40,000 g. The samples for the sonication were prepared by sedimenting the shake-flask culture by centrifugation, and thereafter resuspending the cells in 30 ml of cold TST buffer. The samples were stored on ice during a 2 minute pulsed sonication which was performed on a Sonics and Materials Inc. (Danbury, Conn., USA) Vibra Cell (500 W) using a 13 mm standard horn tip, a 70% duty cycle (20 kHz) and with the output control set to 6.5. […] Eluted fractions were monitored for protein content by absorbance measurement at 280 nm and relevant fractions were lyophilised.

| Assayed concentration [1] | Assayed concentration as percent of expected [1] | binding result [2] | Binder |
| --- | --- | --- | --- |
| 2.34 nM | 71% | – | EAEDLQVGQVELGGGPGAGSLQPLALEGSLQ [Insulin C-peptide (from cleavage of fusion protein BB-C7)] |
| – | – | binds | BB-C3 fusion protein (other, Expressed in E. coli from pTrpBB-C3; 39.1 kDa) MKAIFVLNAQHDEAVDANFDQFNKYGVSDYYKNLINNAKTVEGVKDLQAQVVESAKKARISEATDGLSDFLKSQTPAEDTVKSIELAEAKVLANRELDKYGVSDYHKNLINNAKTVEGVKDLQAQVVESAKKARISEATDGLSDFLKSQTPAEDTVKSIELAEAKVLANRELDKYGVSDYYKNLINNAKTVEGVKALIDEILAALPKTDTYKLILNGKTLKGETTTEAVDAATARSFNFPILENSSSVPASQAREAEDLQVGQVELGGGPGAGSLQPLALEGSLQRTASQAREAEDLQVGQVELGGGPGAGSLQPLALEGSLQRTASQAREAEDLQVGQVELGGGPGAGSLQPLALEGSLQRTASQAVD |
| – | – | binds | BB-C7 fusion protein (other, Expressed in E. coli from pTrpBB-C7; 54.2 kDa; also called peptide product comprising the fusion partner BB and seven copies of the insulin C-peptide) MKAIFVLNAQHDEAVDANFDQFNKYGVSDYYKNLINNAKTVEGVKDLQAQVVESAKKARISEATDGLSDFLKSQTPAEDTVKSIELAEAKVLANRELDKYGVSDYHKNLINNAKTVEGVKDLQAQVVESAKKARISEATDGLSDFLKSQTPAEDTVKSIELAEAKVLANRELDKYGVSDYYKNLINNAKTVEGVKALIDEILAALPKTDTYKLILNGKTLKGETTTEAVDAATARSFNFPILENSSSVPASQAREAEDLQVGQVELGGGPGAGSLQPLALEGSLQRTASQAREAEDLQVGQVELGGGPGAGSLQPLALEGSLQRTASQAREAEDLQVGQVELGGGPGAGSLQPLALEGSLQRTASQAREAEDLQVGQVELGGGPGAGSLQPLALEGSLQRTASQAREAEDLQVGQVELGGGPGAGSLQPLALEGSLQRTASQAREAEDLQVGQVELGGGPGAGSLQPLALEGSLQRTASQAREAEDLQVGQVELGGGPGAGSLQPLALEGSLQRTASQAVD |
